The DeepSol protein solubility set

experiment: soluble on expression in E. coli; label from the status in PepcDB or PDB records

Sequence | soluble on expression in E. coli
MRMRLMLLGGGNALGQALIRLGAEEDIAFLAPRPPENGWAPSSLTQLLDDHRPDALVNLAYYFDWFQAESVSEQRLAQQERAVERLAELCQHHQITLVQPSSYRVFDGSRATAYSEKDEPVPLGLRGQALWRIEQSVRAACPQHVLLRFGWLLDESIDGALGRFLTRAEQPQELLLADDRRGNPTPVDDAARVILSVLKQLDCNAPLWGTYHYAGNEATTPLALGQAILAEAGQYRQLAVQAPTPQAHAARPDASEEPQHAVLACKKILHTFGIKPRAWRAGLPPLLDRFYRHG | not soluble
TPQQRRLSMARRTAASLGYNECVSYTFIDQASAALFGGGTDATMLENPISSEMSHMRPDLLPGLLAAAARNQARGFADLALFEAGPVFHGGEPGEQRAQIAGLLVGRTGPKDVHGAARAVDLYDAKADAEAVLAAMGAPAKVQILRDGDGWWHPGRHGRICLGPKKVLGVFGELHPRVLQAMDVKGPAVAFVLWPEEVPLPRKSGTTRAALAL | not soluble
MLPRLGGFLAGFSSTISSFLPKTTASTLFTHQSSQFSTSFPAWRNNFLQFIHYRNGPPKRRARSKDKSAISGYSHYKGIVLKTVIRHPKKPNSGNRKCAIVRLSTGAEVCAYIPNVGHNLQEHSQVLVKGGRRRDLISVKANIVRGKYDCAPAGGRK | not soluble
MVKKLYIKTNGCQMNEYDSSKMAEVLYASHGLVKTDQVEDADVILLNTCSIREKAQEKVFSQLGQWREYKAKNPHVLIGVGGCVASQEGSDIIKRAPFVDIVFGPQTLHRLPALLNERLEKNKSVVDISFPEIEKFDHLPAPRAEGPTAFVSIMEGCSKYCSFCVVPYTRGEEISRPFDDVLAECYQLASQGVREINLLGQNVNDYRGIMDNGDIADLALLIHYIAAIDGIGRIRFTTSHPLAFSENLINAYAEVPELANHLHLPVQSGSDRILSLMKRGYTALEFKSKIRKLRKIRPDIRLSTDIIVGFPGETDKDFQDTMDLVHEIGFDTSFSFIYSPRPGTPAANLPDDTPMEIKKQRLQILQNRLLMNAARYSESMIGSKQKILVTGFSKKSSQQLSGRTECNRVVNFDGPPHLIGQFIDVQISDALPNSLRGRLLEKEMQPALEHHHHHH | soluble
MTFALGQRWISDTESDLGLGTVVAMDARTVTLMFAASEENRVYARNDAPVTRVTFNVGDVIDCQEGWSLKVEEVLEDEGLYTYFGTREDTQETAVVLREIFLSNQIRFNKPQDKLYAGQIDRMDNFVLRY | not soluble
VDRYNDQASGRALIEIRLCNERATPMPIPIGLWMFQTKLHVNAGGADVFLPVCDVLEQDLAERDEEVRQLNLQYRNRLEYAIGRTCSAAWSVNGSRRPSAVWTTWLPVAETPHTRARSVENALLSMDSRGGVT | not soluble
MKTGDKQFAVIGLGRFGLAVCKELQDSGSQVLAVDINEDRVKEAAGFVSQAIVANCTHEETVAELKLDDYDMVMIAIGADVNASILATLIAKEAGVKSVWVKANDRFQARVLQKIGADHIIMPERDMGIRVARKMLDKRVLEFHPLGSGLAMTEFVVGSRLMGKTLSDLALCKVEGVQVLGFKRGPEIIKAPDMSTTLEIGDLIIVVGPQDKLANKLKSLLEHHHHHH | not soluble
MAHHHHHHMIVDSAVTERVVLQQQQELDAAERRCAAAEQRLEVELQKTFWRFLTTSAPDAVAAANRKQQSLGWANGGDGAGADSSLYRAEVDVSRFAEVRKAASPNPHRCNTAVAPFSPVRLVPVRTIKLSNEVGDASAAAAASRTQSPSKRSQDSALQPIVLDISPVSALSRCLGCCSGTQLGAIASSVSSAAEEHLLRLAHTRHSVLLFIGSESAAMDVMQSCKAPELLLGAGHSCRDRFQPLANHPVLRVLFTTRLWGANVVLLWNPAQDAALAVAAQAVVEDALELAYAWDADMFSVAVLEGARLPSYAGAGGVSAVATGASSTSAAFFASQAVSMEVLRQLRNSVTRELLDTAGMRRARRWQGTATWMQQGIGSAAAATTGTHMCPRAVGVLYVSQSAQQEQENQLQHQEVSCTASSIRSNAASPLRGDNSIVSVMSSSFLFSPTSPASAFRGPCITFNTPLAIRAFLPLAEEYFIREQPSLVRGSSRGGGDGHHGVSEAASSSTLNQEGGGARGLLRRTASATATEDDDASFSSEKDARFSPASLSATSAPASSPAIDAIRASGSGGEAGLRRQPEMTLESLIQYAFGDLAEIL | not soluble
MSLTDLIDIHCHLLPAVDDGSKSIEETLSLIDLLEEIGVKQHILTPHIMEEYPSNDAIFLRARFEELLAAITPDKASRLRLAAEYMLDVAFLDRLAEPLLTLGDRYILVETSYMAPPIGLMGLLADLRFKGLSPVLAHPERYLYMEEKDYVAIKKQGVMFQLNLFSLFGAYNSSASEKAYALLEAGYYDLIGTDIHHLQPIARLLSEASLPPDLEGKIKSLVENNTRLFSEGHHHHHH | not soluble
MKRVALLAVGSFNPPTIAHLRMLEVARSHLETINTQVVEGIMSPVADSYNNKPTLIKSNFRIQMVRAATKSSDWIRADDWECTRTTWTRTIDVLRHHRELVQEKFGSDVGMMLVVGGDVVDSFTRILPDGSNLWNSSDIRTIITEFGLIVLSREGSNPLNTIQSMPAISEFCDRIIQVKDEVCPSGVSSTRLRAAIMNKKSIKYSTPDEVINFIRENNLYQKI | not soluble
MTSIHSPVTRKEDTELKRPDLRGKFVCSSCSQNFQHSASLNRHRQLMHSNEHTCMMCERALNQKETIREHMRNEHNLAQVFTCGCCNWTFASKRQLTEHTKCIQGTGAPGDTIPIAKSINAPGSLIQSTIQGTPPVVKTGRKRPMGGSLSPSSSVSTSISSRDASGSPPPTEEEAERKVLFDNAVDTILQSKFFTYQQITEVDTWVKIIESANTLADTLQRIKKSQKVKAEGPAVESKMIPEKHVKQEIE | not soluble
MDNEMNYGSDYKFIPATSIESGHGIEVLRDLFCYTIQIVNICFVGNPETNDFVLVDAGMPKCANEIISIAKDRFGTNSRPKAIILTHGHFDHVGGIIELIKHWDVHVYAHQMEIPFLTGQQSYPEPDPTVEGGMVAKMSPLFPNEPIDLGNNVKALPTDGTVPHMPEFRWIHTPGHTPGHISLFREKDRTLIAGDAFVTVKQEYLYKVITQEQEISGPPRYLTTDWKAAKESVLKLEKLKPLTAVTGHGIPMSGELLSTSLKTLVQEFDKIAVPDYGKYIDKKMHLEHHHHHH | soluble
ASMTGGQQMGRILVAVLISGTGSNLQALIDSTREPNSSAQIDIVISNKAAVAGLDKAERAGIPTRVINHKLYKNRVEFDSAIDLVLEEFSIDIVCLAGFMRILSGPFVQKWNGKMLNIHPSLLPSFKGSNAHEQALETGVTVTGCTVHFVAEDVDAGQIILQEAVPVKRGDTVATLSERVKLAEHKIFPAALQLVASGTVQLGENGKICWVKEEPLEHHHHHH | soluble
MGHHHHHHSHMRLSQKWQVINQRSLLCGEDEAADENPESQEMLEEQLVRMLTREVMDLITVCCVSKKGADHSSAPPADGDDEEMMATEVTPSAMAELTDLGKCLMKHEDVCTALLITAFNSLAWKDTLSCQRTTSQLCWPLLKQVLSGTLLADAVTWLFTSVLKGLQMHGQHDGCMASLVHLAFQIYEALRPRYLEIRAVMEQIPEIQKDSLDQFDCKLLNPSLQKVADKRRKDQFERLIAGCIGKPLGEQFRKEVHIKNLPSLFKKTKPMLETEVLDNDGGGLATIFEP | not soluble
ELKPTAPPIFTGRPFVVAWDVPTQDCGPRLKVPLDLNAFDVQASPNEGFVNQNITIFYRDRLGLYPRFDSAGRSVHGGVPQNVSLWAHRKMLQKRVEHYIRTQESAGLAVIDWEDWRPVWVRNWQDKDVYRRLSRQLVASRHPDWPPDRIVKQAQYEFEFAAQQFMLETLRYVKAVRPRHLWGFYLFPDCYNHDYVQNWESYTGRCPDVEVARNDQLAWLWAESTALFPSVYLDETLASSRHGRNFVSFRVQEALRVARTHHANHALPVYVFTRPTYSRRLTGLSEMDLISTIGESAALGAAGVILWGDAGYTTSTETCQYLKDYLTRLLVPYVVNVSWATQYCSRAQCHGHGRCVRRNPSASTFLHLSTNSFRLVPGHAPGEPQLRPVGELSWADIDHLQTHFRCQCYLGWSGEQCQWDHRQAAGG | soluble
MPPATNNSREEKEEETTDLSAGKGDCGIKAAATIYVNCELLGGAKKRKKKVYIIPKKNNISQRKSSSPSPKYFKIDENGKISRLPTGIPTVSIQREAFMTQPTTLRKMSQHPCR | soluble
MDFLDFEKVFSFYSKATKKGFSPFFVPALEKAEEPAGNFFLDRKGNLFSIREDFTKTVLNHRKRYSPDSQIKVWYADFVYRYSGSDLVAEYQLGLEKVPRNSLDDSLEVLEIIVESASEFFEGPVIVEIGHTGVYEDLLKEIPKDLHEKVLNLIDTKNLAEIEFLSHMKKIDLSRVEKIIEDSIYRRSPEHLKTMDLPLSVREDLLSASSFLQEKFPTVSVEIDLTLARTIEEYCGLIFTIYDTSSSRLVAAGGEYTVNGEKGVGGSIFLEGKTC | soluble
MAPPKDPPVLRNLQATADLLDALQNDPSLLNDEEFIKRLSILRQKHEETTNFLAKKLGAPPLPTMMTSSEITQHRSSYKVTKSSSCHFQDEASPSDYQMPRHLDLKPRSSEVRVPVRAAPEPPREQSWSQTEYATLAHNQSHEALYEDPRHQVHATSSHQNPRHQSSRHHNIESTAPSQVSVTSSVQSVAALSGQNPRQQVHATPSHQIPRHQSSRTHQNSRQQVPSATSSTLQNPRHRTSSASRHHSTRNATSATVRQILANASTRHLSSAPHIATSVAMPSGLLLSSSNTKHVASSKSENPQFATSSHVVEESFLEDGMSTTREVPTIRDEVVAGDLKLSKNRSKSMHQLSKYTPQVTVPKPFQLSLRKSTGNTYAKKFMSGLITEKQKLEEDAKKALENTKFRAKPVPKSTYQPTNTFATEQKYVEAMRKKVAAKARRKFEVQNEMVRSKSEGNLASIKPLGYVPPSTYISPIPVKPNARSRSATMRATILIQEATTPKGIKSHRAQSNLTHHLRHGRCTMDASAVSLHRRTSPPDFEKIHAKITDNFRNTNSKPSTVPIPFKFASRSKSATSRHGNCQEQAPKPFKKSTENLPKTSKNRVPSTHATQLREELNRAKIELKKSEKSGKNGNFWAEDNKQRISSFLGARSKTEEDIAMRTKQKLQQQQETTQEYMRQLAEMKQRVLNGPLIMEKQTALAQEHRLKRKFEERMKSAKGRGIERVQSQEKQQSIGRRSSEVSGSGTFVVDKGYEESFESEDKSEKSGSSTPSESGSGSESENESRSSRSSKPKSSKSTSSKSSSSRSTSSSSEA | not soluble
MSLAESVFAERIVQNLLDTDFYKLTMMQAVLHNYPNAEVEWEFRCRNAEDLRPYLAEIRYQIERLAEVEVTADQLAFLERIPFMKPDFIRFLSLFRFNLRYVHTGIEDGQLAIRLRGPWLHVILFEVPLLAIVSEVRNRYRYREVVLEQVGEQLYRKLDWLSAQASSEELAEFQVADFGTRRRFSYRTQEEVVHILKRDFPGRFVGTSNVHLAREYDLKPIGTMAHEWLMAHQQLGPRLVDSQQAALDCWVREYRGQLGIALTDCITMDAFLDDFDLYFAKLFDGLRHDSGDPLAWAEKAIAHYRRLGIDPLSKTLVFSDGLDMPKALQLFRALRGKINVSFGIGTNLTCDIPGVEPMNIVLKMTACNGHPVAKISDAPGKTQCRDENFVAYLRHVFNVPAEGHHHHHH | soluble
YTDEEWGFLQNQMICDLCEGYAIYRPRYILPDYNVYIQKGCEFLELPPPKDLDEALDGLLILYSHVPSITTYPVYIGRLDVLLEPFITDEEKDYIKIKRFLNHIDKTVPDSFCHANIGPYDTKAGRLILRAVIDLEAPTPNMTIRYDKSKTSREFAELAAKACLLVSKPSFANDAYYISDLGEEYGVASCYNALPECGGAYTLTRLRLGTIARTCKSADEMLNELLPRVAKCALSTMDKRHKFVVEESNFFNSSFLEKEGFIKRTNFTGMFAIVGLADATNHLLQCEGLNETFGKSVRGDEIATAIMDKLKEITDAHEGVYAERTGNRYLLHAQVGASNHEEDKRNAPAHRIRVGEEPTLLAHLKQSAPFHKYFPSGTGDLFAFDQTYVDHCDAVVDIIDGAFSLGYRYITTYLKNTDLIRVTGYLVKKSEVEKYRKGEVALR | not soluble
